Test results reported in the supplement of paper PMC11246515.
± gives the standard deviation of the averaged measurements.

Assay: total protein half-life in vivo (active degradation + dilution); higher = more stable protein
[1] = E. coli NCM3722 delta-clpP delta-lon delta-hslV, growth: N-lim chemostat, doubling time 6 h
[2] = E. coli NCM3722 delta-clpP, growth: N-lim chemostat, doubling time 6 h
[3] = E. coli NCM3722 delta-hslV, growth: N-lim chemostat, doubling time 6 h
[4] = E. coli NCM3722 delta-lon, growth: N-lim chemostat, doubling time 6 h
[5] = E. coli NCM3722 delta-smpB, growth: N-lim chemostat, doubling time 6 h
[6] = wild type E. coli NCM3722, growth: C-lim chemostat, doubling time 3 h
[7] = wild type E. coli NCM3722, growth: C-lim chemostat, doubling time 6 h
[8] = wild type E. coli NCM3722, growth: C-lim chemostat, doubling time 12 h
[9] = wild type E. coli NCM3722, growth: N-lim chemostat, doubling time 6 h
[10] = wild type E. coli NCM3722, growth: N-lim chemostat, doubling time 12 h
[11] = wild type E. coli NCM3722, growth: P-lim chemostat, doubling time 6 h
[12] = wild type E. coli NCM3722, growth: P-lim chemostat, doubling time 12 h

Sequence | total protein half-life in vivo [1] | total protein half-life in vivo [2] | total protein half-life in vivo [3] | total protein half-life in vivo [4] | total protein half-life in vivo [5] | total protein half-life in vivo [6] | total protein half-life in vivo [7] | total protein half-life in vivo [8] | total protein half-life in vivo [9] | total protein half-life in vivo [10] | total protein half-life in vivo [11] | total protein half-life in vivo [12]
MRRTFTAEEKASVFELWKNGTGFSEIANILGSKPGTIFTMLRDTGGIKPHERKRAVAHLTLSEREEIRAGLSAKMSIRAIATALNRSPSTISREVQRNRGRRYYKAVDANNRANRMAKRPKPCLLDQNLPLRKLVLEKLEMKWSPEQISGWLRRTKPRQKTLRISPETIYKTLYFRSREALHHLNIQHLRRSHSLRHGRRHTRKGERGTINIVNGTPIHERSRNIDNRRSLGHWEGDLVSGTKNSHIATLVDRKSRYTIILRLRGKDSVSVNQALTDKFLSLPSELRKSLTWDRGMELARHLEFTVSTGVKVYFCDPQSPWQRGTNENTNGLIRQYFPKKTCLAQYTQHELDLVAAQLNNRPRKTLKFKTPKEIIERGVALTD [P0CF90] | 5.45 ± 0.8 h |  |  |  |  |  |  |  |  |  |  | 
MRSKYIVIEGLEGAGKTTARNVVVETLEQLGIRDMVFTREPGGTQLAEKLRSLVLDIKSVGDEVITDKAEVLMFYAARVQLVETVIKPALANGTWVIGDRHDLSTQAYQGGGRGIDQHMLATLRDAVLGDFRPDLTLYLDVTPEVGLKRARARGELDRIEQESFDFFNRTRARYLELAAQDKSIHTIDATQPLEAVMDAIRTTVTHWVKELDA [P0A720] | 4.32 ± 0.51 h | 4 ± 0.41 h | 4.4 ± 0.41 h | 4.52 ± 0.32 h | 4.25 ± 0.13 h | 3.059 ± 0.011 h | 5.11 ± 0.073 h | 9.9341 ± 0.0012 h | 3.93 ± 0.26 h | 6.63 ± 0.1 h | 5.59 ± 0.5 h | 11.3 ± 0.12 h
MRSLADFEFNKAPLCEGMILACEAIRRDFPSQDVYDELERLVSLAKEEISQLLPLEEQLEKLIALFYGDWGFKASRGVYRLSDALWLDQVLKNRQGSAVSLGAVLLWVANRLDLPLLPVIFPTQLILRIECPDGEIWLINPFNGESLSEHMLDVWLKGNISPSAELFYEDLDEADNIEVIRKLLDTLKASLMEENQMELALRTSEALLQFNPEDPYEIRDRGLIYAQLDCEHVALNDLSYFVEQCPEDPISEMIRAQINNIAHKHIVLH [P0AGM5] |  |  |  |  |  | 0.281 h |  |  |  |  |  | 
MRSPICHLFSAINSSPFKIAPEKEQDLKTIVDDKKIIISVVSEPGFNIRVRKNESNNSHEIVLTVASLEYIWAFSNFFWVFTQEYSKSQKNNDEHFDLTGKNRLKKSDELLKWARKNLQTTGCESWPKKCPKPEAYLQGSEDSQVASEIFLCAIAWILHHEISHVVLQHPLVTTAFSTQEEREADSHATKWILGNLYESAPELKKRALGIATAVLCIQSLEVENYFCLQNTHPAAYERIYSNISCYPVGNEELIEALCTVMLQYLFHGKNINVNLDGESFSSILGDLLCDISRLTSN | 4.49 ± 0.37 h |  |  |  | 1.26 h |  |  |  |  |  |  | 
MRTLQGWLLPVFMLPMAVYAQEATVKEVHDAPAVRGSIIANMLQEHDNPFTLYPYDTNYLIYTQTSDLNKEAIASYDWAENARKDEVKFQLSLAFPLWRGILGPNSVLGASYTQKSWWQLSNSEESSPFRETNYEPQLFLGFATDYRFAGWTLRDVEMGYNHDSNGRSDPTSRSWNRLYTRLMAENGNWLVEVKPWYVVGNTDDNPDITKYMGYYQLKIGYHLGDAVLSAKGQYNWNTGYGGAELGLSYPITKHVRLYTQVYSGYGESLIDYNFNQTRVGVGVMLNDLF [P0A921] | 6.42 ± 0.11 h | 6.15 ± 0.48 h |  | 7.24 ± 0.85 h | 5.96 ± 0.66 h | 3.01 ± 0.048 h | 6.37 ± 1.1 h | 14.2 ± 0.33 h | 6.28 ± 0.44 h | 13.3 ± 0.75 h | 6.13 ± 0.1 h | 14.2 ± 0.75 h
MRTQWPSPAKLNLFLYITGQRADGYHTLQTLFQFLDYGDTISIELRDDGDIRLLTPVEGVEHEDNLIVRAARLLMKTAADSGRLPTGSGANISIDKRLPMGGGLGGGSSNAATVLVALNHLWQCGLSMDELAEMGLTLGADVPVFVRGHAAFAEGVGEILTPVDPPEKWYLVAHPGVSIPTPVIFKDPELPRNTPKRSIETLLKCEFSNDCEVIARKRFREVDAVLSWLLEYAPSRLTGTGACVFAEFDTESEARQVLEQAPEWLNGFVAKGANLSPLHRAML |  | 4.11 ± 0.64 h | 4.05 ± 0.64 h | 4.25 ± 0.41 h | 4.04 ± 0.42 h | 2.95 ± 0.33 h |  | 10.5 ± 0.63 h | 4.43 ± 0.23 h | 6.789 ± 0.062 h | 5.31 ± 0.33 h | 10.47 ± 0.049 h
MRTTIAVVLGAISLTSAFVFADKPDVARSANDEVSTLFFGHDDRVPVNDTTQSPWDAVGQLETASGNLCTATLIAPNLALTAGHCLLTPPKGKADKAVALRFVSNKGLWRYEIHDIEGRVDPTLGKRLKADGDGWIVPPAAAPWDFGLIVLRNPPSGITPLPLFEGDKAALTAALKAAGRKVTQAGYPEDHLDTLYSHQNCEVTGWAQTSVMSHQCDTLPGDSGSPLMLHTDDGWQLIGVQSSAPAAKDRWRADNRAISVTGFRDKLDQLSQK | 5.08 ± 0.47 h | 5.58 ± 0.3 h | 6.26 ± 0.068 h | 5.8 ± 0.71 h | 4.76 ± 0.16 h | 2.07 ± 0.13 h | 4.406 ± 0.0069 h | 9.64 ± 2.3 h | 5.29 ± 0.23 h | 10.9 ± 0.45 h | 6.23 ± 0.28 h | 11.4 ± 1.1 h
MRTTSFAKVAALCGLLALSGCASKITQPDKYSGFLNNYSDLKETTSATGKPVLRWVDPSFDQSKYDSIVWNPITYYPVPKPSTQVGQKVLDKILNYTNTEMKEAIAQRKPLVTTAGPRSLIFRGAITGVDTSKEGLQFYEVVPVALVVAGTQMATGHRTMDTRLYFEGELIDAATNKPVIKVVRQGEGKDLNNESTPMAFENIKQVIDDMATDATMFDVNKK | 5.89 ± 0.069 h |  | 6.47 ± 0.16 h |  | 5.98 ± 0.26 h | 3.33 ± 0.073 h | 6.02 ± 0.91 h | 10.3 ± 0.9 h | 6.07 ± 0.31 h | 12.8 ± 0.57 h | 5.82 ± 0.2 h | 13 ± 0.29 h
